In PMC5818740 (Protein Science : A Publication of the Protein Society, 2018):
Each block holds one binder with its values, some of them ahead of it.

What was measured:
[1] = biological target: the molecule itself; test: SEC; Superdex 75 in 25 mM TRIS-HCl pH 8.0, 250 mM NaCl, 5% glycerol, 2 mM DTT (reducing conditions)
[2] = biological target: the molecule itself; test: crystal structure; disulfide-locked PICK1 PDZ-QSAV dimer, crystallised with 4.5 molar equivalents of BIO124; 0.1 M BisTRIS pH 5.5, 25% PEG3350, 4°C; 2.44 Å
[3] = biological target: the molecule itself; test: crystal structure; disulfide-bridged, bCPA-treated PICK1 PDZ-QS dimer with BIO124, seeded with PICK1 PDZ-QSAV crystals; 0.1 M BisTRIS pH 5.5, 25% PEG3350, 4°C; 1.75 Å
[4] = biological target: T1, lysine-methylated dimeric PICK1 PDZ-QSAV (human | , UniProt Q9NRD5 1-105, surface lysines methylated with 19C-labeled formaldehyde (so in the source)); test: NMR titration; 1H-13C HSQC of lysine-methylated dimeric PICK1 PDZ-QSAV with GluA2 peptide added; 40 mM sodium phosphate pH 6.8, 150 mM NaCl, 0.2 mM EDTA, DMSO, D2O; 298 K; conditions: both partners purified
T1 construct: human PICK1, residues 1 to 105, holding the PDZ domain; The methods say 'dimeric PICK1 PDZ-QSAV'; also called methylated PICK1 PDZ material; source: E. coli BL21 (DE3), purified; surface lysines methylated with labelled formaldehyde and sodium cyanoborohydride
T1 chain: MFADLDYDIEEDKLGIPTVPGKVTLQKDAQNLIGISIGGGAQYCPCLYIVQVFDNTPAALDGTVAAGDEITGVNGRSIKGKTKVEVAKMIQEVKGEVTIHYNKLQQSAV

B1: PICK1 PDZ-QSAV (unlocked, reduced dimer) (domain or fragment)
chain: T1 chain
notes: The His tag is TEV cleavable; no cleavage step is described; also called PICK1 PDZ-QSAV protein; source: E. coli BL21 (DE3), purified (nickel resin, Superdex 75)
- stoichiometry N [1]: 2

B2: disulfide-bridged (locked) PICK1 PDZ-QSAV dimer (domain or fragment)
chain: T1 chain
modifications: intermolecular disulfides C44(A)-C46(B) and C44(B)-C46(A)
notes: human PICK1, residues 1 to 105, holding the PDZ domain; Same construct as m1 after oxidation; crystallised in the presence of BIO124, which was not seen in the structure; also called dimeric PICK1 PDZ-QSAV; oxidized dimer; source: E. coli BL21 (DE3), purified (nickel resin, Superdex 75), oxidised with 2.5 mM H2O2, Superdex 75
- binding result [2]: binds

B3: bCPA-treated PICK1 PDZ-QS (disulfide-bridged dimer, with BIO124) (domain or fragment)
chain: MFADLDYDIEEDKLGIPTVPGKVTLQKDAQNLIGISIGGGAQYCPCLYIVQVFDNTPAALDGTVAAGDEITGVNGRSIKGKTKVEVAKMIQEVKGEVTIHYNKLQQS
modifications: disulfide-bridged dimer
notes: human PICK1, residues 1 to 105, holding the PDZ domain; what is left of the fused PKCalpha QSAV tail after removal of the 0 and -1 position residues (AV) by carboxypeptidase A; Removal of AV was >95% by mass spectrometry; the small molecule BIO124 sits in the peptide groove of both chains; also called PICK1 PDZ-QS BIO124 complex; PICK1-PDZ-BIO124; source: E. coli BL21 (DE3), purified, oxidised …
- binding result [3]: binds

- binding result [4]: binds
B4: wild type GluA2 peptide (VYGIESVKI) (peptide)
peptide: VYGIESVKI
notes: also called Wt GluR2 peptide; source: synthetic peptide, bought: New England Peptide
